According to a protein production outcome set (Wang et al. 2014):

Assay: label from the status in PepcDB records

Protein production, failed:
MAPFSSSSAEIKIARTAPFSSSAENKGNRQINGASSSASSCDAENAKSGGSRQLGKAAYMEGKHVDALQIFMWMHRKEMSFSTSEVALFVDIIGNTIGIAAAHSYLKKVDPNCDQMHNRTENWPAFVSLVKLETKLLKENGIVHATRPPK
MAPGAAQELQAKLAEIGAPIQGNREELVERLQSYTRQTGIVLNRPVLRGEDGDKAAPPPMSAQ
MAPHPEAAALLARSHRLGADPRNTNYAGGNASAKGTATDPVTGGDVELMWVKGSGGDLGTLTEAGLAVLRLDRLHALKGVYPGVEREDEMVAAFDYCLHGKGGAAPSIDTAMHGLVDAAHVDHLHPDSGIALACAADGEKLTAECFGDSVAWVPWRRPGFQLGLDIAAVKEANPQTIGCVLGGHGITAWGATAEECERNSLHIIRTAEAFLAERGKAEPFGPLEHHHHHH
MAPKAQKSPKGQRKGKKKTKQQSLVSEEEEPMNMESMDVAPGSSPDLDISMASDGHPEIYPLVLTAKTQEIFNCRIDEDMTDEQTYKLIKKEDILADLQNRAAVSDFHPVKKIVLEYPGEELLLVYDKDFKYGLNFYLIGTEEGKENFLKAPEIPEEQEDLKEHVPEDVYIYKPPVSKPWISLGSEKEIEEESVQESKKRVTYMISRKRSQFGAPVTFRDQNASSVKDAYIECTSYPDKSYTLTQVEKDIGLQVIAEVKDTSTQTRWAFPRNATTQYYPREFSEEEKNVLVESKSLAEFFSTVSTSVEIALQQNEIMNTFTDDWRSLAEEESTFGDKTDTHLKEYQSFTDLHNTMEKMITCVSWHPTIYGLIVVSVAVRLSYEERVQNSSRLLLQPSLILFWSFSDPIHPQLMLESPDDIFCFEFCPSDPNIIAGGCINGQIILWDITAHAERIENIKTGGSRSKKATLKPMFLLEPDSNKEIMYVRHCAVSSIENGHRKVITDIHWLPDSFEINRMGSVFENRSGINCQLITCSADCTICFWDIRPQKPTVTSAATATTTSTTNTNPQQPPAEKKKEESIEIPFDVPSTFLHLDLSWKPLSRIKLSKGETSLDHCPTKLSLGEDPALCKIQDKMLSQMKLLKAAEINPYQNLEGGMANMLKPIEDFRTKFFVGTEEGEVIYTDWKMERDSETGRLMAKKPVNLYTVHDGAVHTVQRSPFFNDIILTVGGWNVAIWKEEVLTGPLLQTCCAPKRYTAGHWSLTRPGVFYIGREDGYVDIWDLLEKTHEPAQSQSICITMITYIKPWTFSCRPPFLPQADRSMMVSLLMSMRHSAKPSGDQNPVSSVNYYFEREVKHLEYVQQRKEIREEEKKAMAMEMIKKKAKTYHRSKEQMEAELKLEYESYLELEQSVLFALGLGKVSEKMSYLDLH
MAPKKIGAGKGDSSILAKISNYDIVSQGRRAACDAVYVSKKLLKSTGKAAWIAGTTFLILAVPLILELEQDHRLGEIDFEQASLLGTPPVGAML
MAPMIPHPPAVLAHRLSEGQRLATPLMRALMRATGTQVDAAIARTIAELGAHCGADRTRVYRIEAGQVLDCTHEWCRSGISEIRPEMQRIPLGTLDRWMPILRRGEPVDVPDLHGLPEDDPAKQQMARHGIRALVLMPLTAGTALTGVVGLSLFRARRPVDPAEMALLHSIAEAMGAALARRDAERRAVAARSAARDVARNLERLARVTELMTNLVIVTDVEQQIVWVNRAFERQTGHSLEAIRGRNFAEVVRGPGTDPGVCAAVAEAIRTCSSCEGETINYTAAGQPYWIRFNAHPLSDADGRYAGHASVETVITDRKVLERELATRNAFLTAVLQTSVSAIVALNAEGGIVYANDEARRLLVLQPHRGGLRMEAVLETLDGRPLPEADMPSALVRATGAPLHDLRYAIRRPDGQFGILSINAAPLPQAADDARIVISVTDITHAEASAERLRRQAAEDPLTGLANRRALADAVETRLTEAAPFALVMLDLDNFKAVNDLQRHDTGDAVLRIAADRLRAVAGADCLVARMGGDEFMVLAPGTDAASAPRLAEALRAAISAPIEVGRQPVHLAASAGIALHPEHGTSMALLMTGADIALHAAKRAGRNRSVLLSQAQFAAEARRSAITQALAADVEADLRLVFQPQFRACGAFDGAEALLRWTDPRLGEIGPAEFIPIAEEAGLIQRIDAHVAVLAARQLGLWARRGWRHRLAVNASAQTFARAGFAEELLQHLAEEDVCPQQLVVELTDTSLATLSSVADHNIATLRRAGVGIAIDDFGTGYASLSYLHRIEATEIKIDRGFVAGLETAERRDSKPLIQAILSLAHALGLAVTAEGVETERQRSWLSAEGCDRLQGYLLGRPLPVEAFEAAFVTPAAVPG
